# Laboratory results taken from article PMC8654365.
# Columns and labels:
# [1] = biological target: HA-tagged RON (Recepteur d'Origine Nantais, MST1R) stably expressed in A431 cells (human); assay: two-colour single quantum dot tracking with two-state hidden Markov model; live A431^RON cells; 200 pM anti-HA-QD655 on HA-RON, then 50 pM QD605-conjugated EGF-biotin on endogenous EGFR; 34–36 °C, 20 frames per s; off-rate of hetero-interactions
# [2] = biological target: HA-tagged RON (Recepteur d'Origine Nantais, MST1R) stably expressed in A431 cells (human); assay: two-colour single quantum dot tracking with two-state hidden Markov model; live A431^RON cells, no ligand; HA-RON labelled with a mixture of anti-HA-QD605 and anti-HA-QD655 (monovalent Fab); 34–36 °C, 20 frames per s; off-rate of RON/RON homo-interactions
# Chain of HA-tagged RON (Recepteur d'Origine Nantais, MST1R) stably expressed in A431 cells (human) (Q04912 25-304 limits assumed, chain 1 of 2): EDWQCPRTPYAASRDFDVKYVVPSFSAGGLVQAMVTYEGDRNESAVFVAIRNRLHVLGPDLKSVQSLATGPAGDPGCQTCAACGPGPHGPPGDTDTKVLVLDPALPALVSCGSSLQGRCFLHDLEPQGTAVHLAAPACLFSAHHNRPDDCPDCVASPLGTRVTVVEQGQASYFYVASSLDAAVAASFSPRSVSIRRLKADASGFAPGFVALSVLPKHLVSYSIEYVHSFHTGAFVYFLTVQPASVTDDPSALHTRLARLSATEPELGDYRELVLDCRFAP
# Chain of HA-tagged RON (Recepteur d'Origine Nantais, MST1R) stably expressed in A431 cells (human) (Q04912 310-1400 limits assumed, chain 2 of 2): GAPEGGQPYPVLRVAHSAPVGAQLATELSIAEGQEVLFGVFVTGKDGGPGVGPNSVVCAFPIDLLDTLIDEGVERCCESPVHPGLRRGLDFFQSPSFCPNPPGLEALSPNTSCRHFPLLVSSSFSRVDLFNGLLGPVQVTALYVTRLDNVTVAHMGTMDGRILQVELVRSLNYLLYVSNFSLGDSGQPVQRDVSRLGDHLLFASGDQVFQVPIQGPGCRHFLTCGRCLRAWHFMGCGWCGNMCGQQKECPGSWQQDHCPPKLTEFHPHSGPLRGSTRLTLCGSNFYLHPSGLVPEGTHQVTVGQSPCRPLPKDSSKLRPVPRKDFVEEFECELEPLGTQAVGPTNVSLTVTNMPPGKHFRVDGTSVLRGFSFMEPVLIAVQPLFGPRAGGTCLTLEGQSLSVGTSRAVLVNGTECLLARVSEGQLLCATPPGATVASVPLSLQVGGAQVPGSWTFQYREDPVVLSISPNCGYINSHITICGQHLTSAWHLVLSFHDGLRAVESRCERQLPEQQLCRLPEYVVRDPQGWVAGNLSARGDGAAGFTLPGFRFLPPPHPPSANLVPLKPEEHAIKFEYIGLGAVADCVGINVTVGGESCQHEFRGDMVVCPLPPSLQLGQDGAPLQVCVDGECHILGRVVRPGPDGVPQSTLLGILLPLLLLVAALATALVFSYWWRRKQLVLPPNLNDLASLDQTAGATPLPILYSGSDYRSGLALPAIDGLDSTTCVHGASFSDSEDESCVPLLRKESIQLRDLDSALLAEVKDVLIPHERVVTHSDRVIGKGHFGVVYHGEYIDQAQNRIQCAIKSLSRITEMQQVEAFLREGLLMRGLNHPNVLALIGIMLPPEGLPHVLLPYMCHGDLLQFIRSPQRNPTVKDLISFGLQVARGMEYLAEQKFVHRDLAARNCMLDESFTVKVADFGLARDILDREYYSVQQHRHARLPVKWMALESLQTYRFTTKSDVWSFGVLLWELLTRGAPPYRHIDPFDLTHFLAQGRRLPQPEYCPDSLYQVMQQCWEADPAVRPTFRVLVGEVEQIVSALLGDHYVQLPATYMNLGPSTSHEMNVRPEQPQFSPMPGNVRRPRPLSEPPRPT
average lifetime [1],koff [1],average lifetime [2],koff [2],Substance
2 s,0.49 s⁻¹,,,EGF-bound EGFR (QD-conjugated EGF-biotin on endogenous EGFR of live A431^RON cells) (from UniProt P00533 25-1210) (complex)
,,5.5 s,0.18 s⁻¹,"HA-tagged RON (Recepteur d'Origine Nantais, MST1R) stably expressed in A431 cells (receptor)"
